# Reference: patent publication US20200199244A1 (published 2020)
# Where a chain is given by its changes, count along the chain named. Values joined by “and” are separate entries in the source; they are usually repeats but may differ in a detail not shown here. Identical values can stand only once.
# T1: wild type cynomolgus monkey CD40 Fc fusion (cynomolgus monkey (Macaca …))
# T1 construct: also called wt-cCD40; wt-cyno-CD40; not shown: human IgG1 Fc
# T1 chain: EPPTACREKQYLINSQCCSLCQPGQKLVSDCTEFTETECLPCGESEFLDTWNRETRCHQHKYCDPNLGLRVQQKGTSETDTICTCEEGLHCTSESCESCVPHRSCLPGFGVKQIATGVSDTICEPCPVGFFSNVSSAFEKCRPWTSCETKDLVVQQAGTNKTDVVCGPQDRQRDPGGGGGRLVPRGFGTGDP
# T2: human CD40 (H76R, W109L, L121P) Fc fusion (human)
# T2 construct: Same construct as wt-hCD40 with H76R, W109L and L121P; also called hCD40-M5; hCD40-M5 (H76R, W109L, L121P); not shown: human IgG1 Fc
# T2 chain: T1 chain with S95A, L106S, R142H, Q172L
# T3: human CD40 (H76R, W109L, L121P) Fc fusion (human)
# T3 construct: As m1 with H76R, W109L and L121P; also called hCD40-M5; not shown: human IgG1 Fc
# T3 chain: T1 chain with S95A, L106S, R142H, Q172L
# T4: wild type cynomolgus monkey CD40 Fc fusion (cynomolgus monkey; human)
# T4 construct: also called wt-cyno-CD40; wt-cCD40; not shown: human IgG1 Fc
# T4 chain: T1 chain
# T5: wild type cynomolgus monkey CD40 Fc fusion (cynomolgus monkey (Macaca …))
# T5 construct: also called wt-cyno-CD40; wt-cCD40; not shown: human IgG1 Fc
# T5 chain: T1 chain
# B1: BMS3h-38-211 (other)
# VH: EVQLLASGGGLVQPGGSLRLSCAASGFTFEEEEMIWVRQAPGKGLEWVSAISRQGGSTYYADSVKGRFTISRDNSKNTLYLQMNSLRAEDTAVYYCGKEPFRYDYWGQGTLVTVSS
# notes: Anti-human CD40 domain antibody (dAb), single VH domain
# B2: BMS3h-38-217 (other)
# VH: B1 VH with Q54R, G56Y
# notes: as for B1
# B3: BMS3h-38-215 (other)
# VH: B1 VH with R53G, Q54L, G56W
# notes: as for B1
# B4: BMS3h-37-2 (other)
# VH: EVQLLESGGGLVQPGGSLRLSCAASGFTFEWYEMQWVRRAPGKGLEWVSAISGDGYRTYYADSVKGRFTISRDNSKNTLYLQMNSLRAEDTAVYYCAKELGYFDYWGRGTLVTVSS
# notes: as for B1
# B5: BMS3h-37-11 (other)
# VH: B4 VH with R39K, W106R
# notes: as for B1
# B6: BMS3h-38-215 (other)
# VH: B1 VH with R53G, Q54L, G56W
# notes: domain antibody (dAb), single VH domain
# B7: BMS3h-38-217 (other)
# VH: B1 VH with Q54R, G56Y
# notes: as for B6
# B8: BMS3h-56-2 (other)
# VH: EVQLLESGGGLVQPGGSLRLSCAASGFTFRDYEMWWVRQAPGKGLERVSAINPQGTRTYYADSVKGRFTISRDNSKNTLYLQMNSLRAEDTAVYYCAKLPFTFDDWGQGTLVTVSS
# notes: Anti-human CD40 domain antibody (dAb), a single human VH domain
# B9: BMS3h-257 (other)
# VH: EVQLLESGGGLVQPGGSLRLSCAASGFTFQNYQMAWVRQAPGKGLEWVSTISGTGKNTYYADSVKGRFTISRDNSKNTLYLQMNSLRAEDTAVYYCAKTPQNYFSVRRFDYWGQGTLVTVSS
# notes: dAb, single VH
# B10: BMS3h-233 (other)
# VH: EVQLLESGGGLVQPGGSLRLSCAASGFTFAHYNMRWVRQAPGKGLEWVSTITKTGFRTYYADSVKGRFTISRDNSKNTLYLQMNSLRAEDTAVYYCAKAGQFDFDYWGQGTLVTVSS
# notes: dAb, single VH
# B11: BMS3h-287 (other)
# VH: EVQLLESGGGLVQPGGSLRLSCAASGFTFTNYRMSWVRQAPGKGLEWVSAIDDLGVSTYYADSVKGRFTISRDNSKNTLYLQMNSLRAEDTAVYYCAKWRLKNSQPTDFDYWGQGTLVTVSS
# notes: dAb, single VH
# B12: BMS3h-231 (other)
# VH: EVQLLESGGGLVQPGGSLRLSCAASGFTFSAYNMWWARQAPGKGLEWVSWINSTGSRTYYADSVKGRFTISRDNSKNTLYLQMNSLRAEDTAVYYCAKNWHRGRFDYWGQGTLVTVSS
# notes: dAb, single VH
# Target: T1, wild type cynomolgus monkey CD40 Fc …
# Assay: SPR, ProteOn XPR36; CD40-Fc captured, dAb analyte
# Description: (§1) Assays were performed on a BioRad ProteOn XPR36 SPR instrument. The SPR surfaces were prepared by immobilizing 8 μg/ml anti-human IgG(Fc) antibody (Biacore/GE Healthcare) in 10 mM sodium acetate pH 4.5 on a BioRad GLC sensor chip using standard ethyl(dimethylaminopropyl) carbodiimide (EDC)/N-hydroxysuccinimide (NHS) chemistry, with ethanolamine blocking. The running buffer for immobilization and kinetic binding analysis was 10 mM sodium phosphate, 130 mM sodium chloride, 0.05% tween 20, pH 7.1. CD40-Fc fusion proteins at concentrations of 20 μg/ml were captured in the vertical orientation on these surfaces via the Fc tail, and reference surfaces lacking CD40-Fc proteins were used for reference subtraction. […] The surfaces were regenerated in both horizontal and vertical orientations with 30 s pulses of 3 M MgCl₂ followed by running buffer at 60 μl/min. Sensogram data was double-referenced and then fitted to a 1:1 Langmuir model using BioRad ProteOn Manager V.2.1.0.38 software, to determine the association rate constant (ka), the dissociation rate constant (kd), and the equilibrium dissociation constant (KD).
row,Binder,binding result
1,B1,no binding (tested: dAb tested up to 405 nM)
2,B2,no binding (tested: dAb tested up to 405 nM)
3,B3,no binding (tested: dAb tested up to 405 nM)
4,B4,no binding (tested: dAb tested up to 405 nM)
5,B5,no binding (tested: dAb tested up to 405 nM)

# Target: T6, human CD40 (W109L, L121P) Fc fusion (human, UniProt P25942 21-193)
# T6 construct: Same construct as wt-hCD40 with W109L and L121P; also called hCD40-M4; hCD40 M4 (W109L, L121P); not shown: human IgG1 Fc
# Assay: SPR, ProteOn XPR36; CD40-Fc captured, dAb analyte
row,Binder,binding result
1,B1,no binding (tested: dAb tested up to 405 nM)
2,B2,no binding (tested: dAb tested up to 405 nM)
3,B3,no binding (tested: dAb tested up to 405 nM)
4,B4,no binding (tested: dAb tested up to 405 nM)
5,B5,no binding (tested: dAb tested up to 405 nM)

# Target: T2, human CD40 (H76R, W109L, L121P) Fc …
# Assay: SPR, ProteOn XPR36; CD40-Fc captured, dAb analyte
# Description: as §1
row,Binder,binding result
1,B1,no binding (tested: dAb tested up to 405 nM)
2,B2,no binding (tested: dAb tested up to 405 nM)
3,B3,no binding (tested: dAb tested up to 405 nM)
4,B4,no binding (tested: dAb tested up to 405 nM)
5,B5,no binding (tested: dAb tested up to 405 nM)

# Target: T7, human CD40 (W109R) Fc fusion (Chimpanzee CD40) (human, UniProt P25942 21-193)
# T7 construct: Same construct as wt-hCD40 with W109R (the residue of chimpanzee CD40); also called hCD40-M3; hCD40 M3 (W109R); not shown: human IgG1 Fc
# Assay: SPR, ProteOn XPR36; CD40-Fc captured, dAb analyte
row,Binder,binding result
1,B1,no binding (tested: dAb tested up to 405 nM)
2,B2,no binding (tested: dAb tested up to 405 nM)
3,B3,no binding (tested: dAb tested up to 405 nM)
4,B4,no binding (tested: dAb tested up to 405 nM)
5,B5,no binding (tested: dAb tested up to 405 nM)

# Target: T8, human CD40 (W109R) Fc fusion (Chimpanzee CD40) (human, UniProt P25942 21-193)
# T8 construct: As m1 with W109R (residue of chimpanzee CD40); also called hCD40-M3; not shown: human IgG1 Fc
# Assay: SPR ProteOn XPR36;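 also: surface plasmon resonance with CD40-Fc fusions captured through their Fc on an anti-human IgG chip, sensorgrams reference-subtracted against surfaces lacking CD40-Fc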
row,binding result,Binder
1,no binding (tested: 405 nM),B6
2,no binding (tested: 405 nM),B7

# Target: T3, human CD40 (H76R, W109L, L121P) Fc …
# Assay: SPR ProteOn XPR36;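 also: surface plasmon resonance with CD40-Fc fusions captured through their Fc on an anti-human IgG chip, sensorgrams reference-subtracted against surfaces lacking CD40-Fc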
# Description: as §1
row,binding result,Binder
1,no binding (tested: 405 nM),B6
2,no binding (tested: 405 nM),B7

# Target: T9, human CD40 (W109L, L121P) Fc fusion (human, UniProt P25942 21-193)
# T9 construct: As m1 with W109L and L121P; also called hCD40-M4; not shown: human IgG1 Fc
# Assay: SPR ProteOn XPR36;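 also: surface plasmon resonance with CD40-Fc fusions captured through their Fc on an anti-human IgG chip, sensorgrams reference-subtracted against surfaces lacking CD40-Fc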
row,binding result,Binder
1,no binding (tested: 405 nM),B6
2,no binding (tested: 405 nM),B7

# Target: T4, wild type cynomolgus monkey CD40 Fc …
# Assay: SPR ProteOn XPR36;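 also: surface plasmon resonance with CD40-Fc fusions captured through their Fc on an anti-human IgG chip, sensorgrams reference-subtracted against surfaces lacking CD40-Fc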
# Description: as §1
row,binding result,Binder
1,no binding (tested: 405 nM),B6
2,no binding (tested: 405 nM),B7

# Target: T5, wild type cynomolgus monkey CD40 Fc …
# Assay: SPR (ProteOn XPR36), CD40-Fc captured via anti-human IgG(Fc), dAb as analyte, 25 C
# Description: as §1
row,Binder,binding result
1,B8,no binding (tested: 405 nM (highest dAb concentration))

# Target: T10, wild type human CD40 Fc fusion (human, UniProt P25942 21-193)
# T10 construct: also called wt-hCD40; not shown: human IgG1 Fc
# Assay: SPR, ProteOn XPR36; CD40-Fc captured, dAb analyte; 1:1 fit;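 as to Kd: CD40-Fc captured on anti-human IgG(Fc) surface of a GLC chip, buffer pH 7.1, sensorgrams double-referenced against surfaces without CD40-Fc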;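 as to koff: CD40-Fc captured on anti-human IgG(Fc) surface of a GLC chip, buffer pH 7.1, sensorgrams double-referenced against surfaces without CD40-Fc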;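 as to kon: CD40-Fc captured on anti-human IgG(Fc) surface of a GLC chip, buffer pH 7.1, sensorgrams double-referenced against surfaces without CD40-Fc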
Kd [nM],koff [s⁻¹],kon [M⁻¹ s⁻¹],Binder
3.26,0.000362,111000,B1
2.34,0.000296,127000,B2
2.1,0.000288,137000,B3
1.96,0.000417,212000,B4
1.92,0.00056,291000,B5

# Target: T11, human CD40 (H76R) Fc fusion (human, UniProt P25942 21-193)
# T11 construct: also called hCD40-M1; hCD40 M1 (H76R); not shown: human IgG1 Fc
# Assay: as above
Kd [nM],koff [s⁻¹],kon [M⁻¹ s⁻¹],Binder
3.98,0.00051,128000,B1
3.41,0.000481,141000,B2
3.03,0.00053,175000,B3
2.58,0.000562,217000,B4
2.39,0.000717,300000,B5

# Target: T12, human CD40 (H76R) Fc fusion (human, UniProt P25942 21-193)
# T12 construct: As m1 with H76R; also called hCD40-M1; not shown: human IgG1 Fc
# Assay: SPR ProteOn XPR36, CD40-Fc captured, dAb analyte
row,Kd [nM],Binder
1,3,B6
2,3.4,B7

# Target: T13, wild type human CD40 Fc fusion (human, UniProt P25942 21-193)
# T13 construct: also called wt-hCD40; not shown: human IgG1 Fc
# Assay: SPR ProteOn XPR36, CD40-Fc captured, dAb analyte
row,Kd,Binder
1,2.1 nM and 6 nM,B6
2,2.3 nM and 2.4 nM,B7

# Target: T14, human CD40 (BMS, CY24FEB06-01) (human, UniProt P25942 21-193)
# T14 construct: Soluble reagent of the bead and ELISA RBA; It is detected with an anti-human IgG (Fc) mAb, so it may be a CD40-Ig fusion
# Assay: ELISA RBA, competition with IZ-CD40L
# Description: Clear walled High Bind, 384-well plates (Corning, UK) were coated with 25 μl of 1 μg/ml Neutravidin in 0.2 M carbonate-bicarbonate buffer, pH 9.4 overnight at 4° C. The following day, assay plates were washed with 0.1% (v/v) Tween PBS buffer, blocked with 1% (w/v) BSA in PBS for 1 hour at room temperature and washed again. […] Following washing of the assay plate, the dAb:human CD40 complex was incubated in the assay plate at room temperature for 2 hours with gentle agitation. […] Absorbance signal was measured using a SpectraMax® M5e plate reader (Molecular Devices) at 450 nm following neutralization with 1M HCl solution.
row,EC50,Binder
1,3210 nM and 1340 nM,B9
2,2770 nM,B10
3,> 10000 nM and 6760 nM,B11
4,670 nM and 870 nM,B12

# Target: T10, wild type human CD40 Fc fusion
# Assay: SPR, ProteOn XPR36; CD40-Fc captured, dAb analyte; 1:1 fit; repeat
# Description: as §1
Kd [nM],koff [s⁻¹],kon [M⁻¹ s⁻¹],Binder
6.08,0.000728,120000,B1
2.37,0.00034,144000,B2
6.02,0.00082,136000,B3
2,0.000426,213000,B4
2.28,0.00064,281000,B5
